# Source: patent US20030166571A1 (SYNVAX, published 2003)
# Numbered stars: 1 amine (or outer) side, 2 acyl side, 3 side chain; on linkers, the order of the positions; unused ones are H or OH. Square brackets hold non-standard residues; d marks the D form. * marks the point of attachment. hPhe(2,4-di-NO2) = 2,4-di-NO2 homophenylalanine, O=C([C@H](CCc1ccc([N+](=O)[O-])cc1[N+](=O)[O-])N[*:1])[*:2]; Phe(4-NHAc) = 4-acetamidophenylalanine, CC(=O)Nc1ccc(C[C@H](N[*:1])C(=O)[*:2])cc1; Phe(4-CH2SO3H) = N[C@@H](Cc1ccc(CS(=O)(=O)O)cc1)C(=O)O; Phe(4-NO2) = N[C@@H](Cc1ccc([N+](=O)[O-])cc1)C(=O)O; Phe(4-CH2NH2) = NCc1ccc(C[C@H](N)C(=O)O)cc1; Tyr(3-Cl) = N[C@@H](Cc1ccc(O)c(Cl)c1)C(=O)O; Phe(4-F) = N[C@@H](Cc1ccc(F)cc1)C(=O)O; Dmt = Cc1cc(O)cc(C)c1C[C@H](N)C(=O)O; Dab = NCC[C@H](N)C(=O)O; Dap = NC[C@H](N)C(=O)O; Hexanoyl = CCCCCC(=O)*; Propionyl = CCC(=O)*; Ahx = NCCCCCC(=O)O
# How the values were obtained:
# [1] = target: T1, human ORL-1 receptor (opioid receptor like 1) (human, UniProt P41146 1-370); assay: cell-based or functional assay
# T1 sequence (P41146 whole entry): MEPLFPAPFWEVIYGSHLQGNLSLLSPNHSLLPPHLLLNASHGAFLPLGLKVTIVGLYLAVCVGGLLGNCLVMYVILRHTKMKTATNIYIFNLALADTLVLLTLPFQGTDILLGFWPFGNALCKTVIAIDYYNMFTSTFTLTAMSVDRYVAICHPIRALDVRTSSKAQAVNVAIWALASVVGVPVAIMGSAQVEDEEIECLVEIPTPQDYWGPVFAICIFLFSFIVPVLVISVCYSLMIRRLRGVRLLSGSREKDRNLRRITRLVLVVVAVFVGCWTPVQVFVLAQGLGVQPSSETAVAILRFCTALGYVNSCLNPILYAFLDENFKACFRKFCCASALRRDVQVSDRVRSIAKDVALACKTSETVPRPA
# [2] = target: T1, human ORL-1 receptor (opioid receptor …); assay: [3H]nociceptin displacement, membranes of CHO cells transfected with human ORL-1; Ki=IC50/(1+L/Kd)
# Experimental: Receptor binding studies were conducted on human ORL1 (opiate receptor like 1) transfected into Chinese hamster ovary (CHO) cells using each of the hexapeptide analog compounds of Table 3. All the compounds were evaluated for binding affinities. […] The data shown in Table 5 represents the average±SEM of at least two experiments conducted in triplicate.
# Cells are removed from the plates by scraping with a rubber policeman, and then homogenized in Tris buffer using a Polytron homogenizer. Following this homogenization step, the cellular mixture is centrifuged once and washed by an additional centrifugation at 40,000×g for 15 min. The pellet formed during the centrifugation is re-suspended in 50 mM Tris, pH 7.5. […] Samples of the suspension are then filtered over glass fiber filters using a Wallac cell harvester.
# For the data in Table 5, binding was conducted as described above. IC₅₀ values and Hill coefficients were determined using the curve-fitting program Prism. K₁ values were calculated using the equation K₁=IC₅₀/(1+[L]/Kd). […] The data in Table 5 represent the average±SEM of at least two experiments conducted in triplicate.
# [3] = target: T1, human ORL-1 receptor (opioid receptor …); assay: binding assay at ORL1 (taken as [3H]nociceptin displacement as in Table 1)
Binder,% Stimulation of [35S]GTPγS binding [1],EC50 (nM) of stimulation of [35S]GTPγS binding [1],Ki [2],IC50 [3]
"Ac-[Ahx]YYRWR-NH2 (SMILES CC(=O)NCCCCCC(=O)N[C@@H](Cc1ccc(O)cc1)C(=O)N[C@@H](Cc1ccc(O)cc1)C(=O)N[C@@H](CCCNC(=N)N)C(=O)N[C@@H](Cc1c[nH]c2ccccc12)C(=O)N[C@@H](CCCNC(=N)N)C(N)=O, also called Ac-ε-aminocaproyl-Tyr-Tyr-Arg-Trp-Arg-NH2) [VII-53-B]",39.5%,167 nM,29.1 nM,
"Ac-RY[Phe(4-F)]RWR-NH2 (SMILES CC(=O)N[C@@H](CCCNC(=N)N)C(=O)N[C@@H](Cc1ccc(O)cc1)C(=O)N[C@@H](Cc1ccc(F)cc1)C(=O)N[C@@H](CCCNC(=N)N)C(=O)N[C@@H](Cc1c[nH]c2ccccc12)C(=O)N[C@@H](CCCNC(=N)N)C(N)=O, also called Ac-Arg-Tyr-Phe(4-F)-Arg-Trp-Arg-NH2) [VII-61-B]",70.4%,2 nM,0.05 nM,
"Ac-[Dap]YYRWR-NH2 (SMILES CC(=O)N[C@@H](CN)C(=O)N[C@@H](Cc1ccc(O)cc1)C(=O)N[C@@H](Cc1ccc(O)cc1)C(=O)N[C@@H](CCCNC(=N)N)C(=O)N[C@@H](Cc1c[nH]c2ccccc12)C(=O)N[C@@H](CCCNC(=N)N)C(N)=O, also called Ac-Dap-Tyr-Tyr-Arg-Trp-Arg-NH2) [VII-65-F]",13.7%,,28.1 nM,
"Ac-R[Tyr(3-Cl)]YRWR-NH2 (SMILES CC(=O)N[C@@H](CCCNC(=N)N)C(=O)N[C@@H](Cc1ccc(O)c(Cl)c1)C(=O)N[C@@H](Cc1ccc(O)cc1)C(=O)N[C@@H](CCCNC(=N)N)C(=O)N[C@@H](Cc1c[nH]c2ccccc12)C(=O)N[C@@H](CCCNC(=N)N)C(N)=O, also called Ac-Arg-Tyr(3-Cl)-Tyr-Arg-Trp-Arg-NH2) [VII-87-B]",72%,3.9 nM,0.26 nM,
"Ac-RY[Dmt]RWR-NH2 (SMILES CC(=O)N[C@@H](CCCNC(=N)N)C(=O)N[C@@H](Cc1ccc(O)cc1)C(=O)N[C@@H](Cc1c(C)cc(O)cc1C)C(=O)N[C@@H](CCCNC(=N)N)C(=O)N[C@@H](Cc1c[nH]c2ccccc12)C(=O)N[C@@H](CCCNC(=N)N)C(N)=O, also called Ac-Arg-Tyr-Tyr(2,6-di-Me)-Arg-Trp-Arg-NH2) [VII-73-A]",52.7%,5.2 nM,0.04 nM,
"Ac-RY[hPhe(2,4-di-NO2)]RWR-NH2 (SMILES CC(=O)N[C@@H](CCCNC(=N)N)C(=O)N[C@@H](Cc1ccc(O)cc1)C(=O)N[C@@H](CCc1ccc([N+](=O)[O-])cc1[N+](=O)[O-])C(=O)N[C@@H](CCCNC(=N)N)C(=O)N[C@@H](Cc1c[nH]c2ccccc12)C(=O)N[C@@H](CCCNC(=N)N)C(N)=O, also called Ac-Arg-Tyr-hPhe(2,4-di-NO2)-Arg-Trp-Arg-NH2) [VII-71-B]",33.6%,7.5 nM,0.63 nM,
"Ac-RYYRW[Ahx]-NH2 (SMILES CC(=O)N[C@@H](CCCNC(=N)N)C(=O)N[C@@H](Cc1ccc(O)cc1)C(=O)N[C@@H](Cc1ccc(O)cc1)C(=O)N[C@@H](CCCNC(=N)N)C(=O)N[C@@H](Cc1c[nH]c2ccccc12)C(=O)NCCCCCC(N)=O, also called Ac-Arg-Tyr-Tyr-Arg-Trp-ε-aminocaproyl-NH2) [VII-57-C]",37.4%,358 nM,41.9 nM,
"Ac-RY[Phe(4-NHAc)]RWR-NH2 (SMILES CC(=O)Nc1ccc(C[C@H](NC(=O)[C@H](Cc2ccc(O)cc2)NC(=O)[C@H](CCCNC(=N)N)NC(C)=O)C(=O)N[C@@H](CCCNC(=N)N)C(=O)N[C@@H](Cc2c[nH]c3ccccc23)C(=O)N[C@@H](CCCNC(=N)N)C(N)=O)cc1, also called Ac-Arg-Tyr-Phe(4-NHAc)-Arg-Trp-Arg-NH2) [VII-77-A]",19%,115 nM,0.88 nM,
"Ac-RY[Phe(4-CH2NH2)]RWR-NH2 (SMILES CC(=O)N[C@@H](CCCNC(=N)N)C(=O)N[C@@H](Cc1ccc(O)cc1)C(=O)N[C@@H](Cc1ccc(CN)cc1)C(=O)N[C@@H](CCCNC(=N)N)C(=O)N[C@@H](Cc1c[nH]c2ccccc12)C(=O)N[C@@H](CCCNC(=N)N)C(N)=O, also called Ac-Arg-Tyr-Phe(4-CH2NH2)-Arg-Trp-Arg-NH2) [VII-79-A]",< 20%,,2.54 nM,
Propionyl-AYYRWR-NH2 (SMILES CCC(=O)N[C@@H](C)C(=O)N[C@@H](Cc1ccc(O)cc1)C(=O)N[C@@H](Cc1ccc(O)cc1)C(=O)N[C@@H](CCCNC(=N)N)C(=O)N[C@@H](Cc1c[nH]c2ccccc12)C(=O)N[C@@H](CCCNC(=N)N)C(N)=O) [IV-21-C Propionyl-AYYRWR-NH2],,,,1780 nM
Propionyl-RYYRAR-NH2 (SMILES CCC(=O)N[C@@H](CCCNC(=N)N)C(=O)N[C@@H](Cc1ccc(O)cc1)C(=O)N[C@@H](Cc1ccc(O)cc1)C(=O)N[C@@H](CCCNC(=N)N)C(=O)N[C@@H](C)C(=O)N[C@@H](CCCNC(=N)N)C(N)=O) [IV-29-B Propionyl-RYYRAR-NH2],,,,1890 nM
Propionyl-RYYRWA-NH2 (SMILES CCC(=O)N[C@@H](CCCNC(=N)N)C(=O)N[C@@H](Cc1ccc(O)cc1)C(=O)N[C@@H](Cc1ccc(O)cc1)C(=O)N[C@@H](CCCNC(=N)N)C(=O)N[C@@H](Cc1c[nH]c2ccccc12)C(=O)N[C@@H](C)C(N)=O) [IV-31-B Propionyl-RYYRWA-NH2],,,,76 nM
Hexanoyl-RAYRWR-NH2 (SMILES CCCCCC(=O)N[C@@H](CCCNC(=N)N)C(=O)N[C@@H](C)C(=O)N[C@@H](Cc1ccc(O)cc1)C(=O)N[C@@H](CCCNC(=N)N)C(=O)N[C@@H](Cc1c[nH]c2ccccc12)C(=O)N[C@@H](CCCNC(=N)N)C(N)=O) [IV-35-B Hexanoyl-RAYRWR-NH2],,,,113 nM
Propionyl-RAYRWR-NH2 (SMILES CCC(=O)N[C@@H](CCCNC(=N)N)C(=O)N[C@@H](C)C(=O)N[C@@H](Cc1ccc(O)cc1)C(=O)N[C@@H](CCCNC(=N)N)C(=O)N[C@@H](Cc1c[nH]c2ccccc12)C(=O)N[C@@H](CCCNC(=N)N)C(N)=O) [IV-23-B Propionyl-RAYRWR-NH2],,,,182 nM
Propionyl-RYYAWR-NH2 (SMILES CCC(=O)N[C@@H](CCCNC(=N)N)C(=O)N[C@@H](Cc1ccc(O)cc1)C(=O)N[C@@H](Cc1ccc(O)cc1)C(=O)N[C@@H](C)C(=O)N[C@@H](Cc1c[nH]c2ccccc12)C(=O)N[C@@H](CCCNC(=N)N)C(N)=O) [IV-27-B Propionyl-RYYAWR-NH2],,,,400 nM
Propionyl-RYARWR-NH2 (SMILES CCC(=O)N[C@@H](CCCNC(=N)N)C(=O)N[C@@H](Cc1ccc(O)cc1)C(=O)N[C@@H](C)C(=O)N[C@@H](CCCNC(=N)N)C(=O)N[C@@H](Cc1c[nH]c2ccccc12)C(=O)N[C@@H](CCCNC(=N)N)C(N)=O) [IV-25-B Propionyl-RYARWR-NH2],,,,495 nM
Hexanoyl-AYYRWR-NH2 (SMILES CCCCCC(=O)N[C@@H](C)C(=O)N[C@@H](Cc1ccc(O)cc1)C(=O)N[C@@H](Cc1ccc(O)cc1)C(=O)N[C@@H](CCCNC(=N)N)C(=O)N[C@@H](Cc1c[nH]c2ccccc12)C(=O)N[C@@H](CCCNC(=N)N)C(N)=O) [IV-33-B Hexanoyl-AYYRWR-NH2],,,,1020 nM
"Ac-RY[Phe(4-NO2)]RWR-NH2 (SMILES CC(=O)N[C@@H](CCCNC(=N)N)C(=O)N[C@@H](Cc1ccc(O)cc1)C(=O)N[C@@H](Cc1ccc([N+](=O)[O-])cc1)C(=O)N[C@@H](CCCNC(=N)N)C(=O)N[C@@H](Cc1c[nH]c2ccccc12)C(=O)N[C@@H](CCCNC(=N)N)C(N)=O, also called Ac-Arg-Tyr-Phe(4-NO2)-Arg-Trp-Arg-NH2) [VII-63-B]",43.2%,3.2 nM,0.17 nM,
"Ac-RY[Phe(4-CH2SO3H)]RWR-NH2 (SMILES CC(=O)N[C@@H](CCCNC(=N)N)C(=O)N[C@@H](Cc1ccc(O)cc1)C(=O)N[C@@H](Cc1ccc(CS(=O)(=O)O)cc1)C(=O)N[C@@H](CCCNC(=N)N)C(=O)N[C@@H](Cc1c[nH]c2ccccc12)C(=O)N[C@@H](CCCNC(=N)N)C(N)=O, also called Ac-Arg-Tyr-Phe(4-CH2SO3H)-Arg-Trp-Arg-NH2) [VII-75-B]",< 20%,,26.7 nM,
"Ac-[Dab]YYRWR-NH2 (SMILES CC(=O)N[C@@H](CCN)C(=O)N[C@@H](Cc1ccc(O)cc1)C(=O)N[C@@H](Cc1ccc(O)cc1)C(=O)N[C@@H](CCCNC(=N)N)C(=O)N[C@@H](Cc1c[nH]c2ccccc12)C(=O)N[C@@H](CCCNC(=N)N)C(N)=O, also called Ac-Dab-Tyr-Tyr-Arg-Trp-Arg-NH2) [VII-67-A]",< 20%,,5.59 nM,
"Ac-RYY[Ahx]WR-NH2 (SMILES CC(=O)N[C@@H](CCCNC(=N)N)C(=O)N[C@@H](Cc1ccc(O)cc1)C(=O)N[C@@H](Cc1ccc(O)cc1)C(=O)NCCCCCC(=O)N[C@@H](Cc1c[nH]c2ccccc12)C(=O)N[C@@H](CCCNC(=N)N)C(N)=O, also called Ac-Arg-Tyr-Tyr-ε-aminocaproyl-Trp-Arg-NH2) [VII-55-A]",26.6%,1230 nM,39 nM,
